According to patent US20100119516A1 (Eli Lilly, published 2010):
Substitutions are numbered along the chain they refer to. One block for each binder: values may come before it.

What was measured:
[1] = molecular target: T1, soluble recombinant human TGFβRII alkaline phosphatase (TGFβRII-AP) (human, UniProt P37173 23-166); test: blocking ELISA: TGFβRII-AP binding to coated human TGFβ3
T1 construct: also called TGFβII-AP; not shown: alkaline phosphatase fusion partner
Excerpt: (§1) At day 10 to 12 post-fusion, the hybridomas are screened for antibody production and specific binding activity of culture supernatants with TGFβRII protein in ELISA-based binding and blocking assays. Specifically, hybridomas producing anti-TGFβRII mAbs are first identified by detection of TGFβRII-bound antibody with a goat anti-human kappa light chain or anti-mouse IgG horse radish peroxidase (HRP) conjugated antibody according to the following procedure. Human TGFβRII-Fc or mouse TGFβRII-Fc is coated at 100 ng/well on 96 microtiter plates at 4° C. overnight. The coated plates are blocked with the blocking buffer (PBS 0.05% TWEEN® 20 containing 5% dry milk) at room temperature for 2 hours. Hybridoma supernatants or purified antibodies are diluted in PBS with 2% bovine serum albumin (BSA) and 0.05% TWEEN® 20 (ELISA buffer) and incubated in TGFβRII-coated, 96-well, microtiter plates for 30 minutes. Plates are washed with the ELISA buffer and incubated with goat anti-human kappa light chain or anti-mouse IgG-HRP conjugate for 30 minutes. TMB (3,3′,5,5′-tetra-methylbenzidine) substrate is used for color development following the manufacturer's instructions. The absorbance at 450 nanometers (nm) is read for quantification of binding activity of antibodies. For identification of hybridomas producing neutralizing anti-TGFβRII mAbs, an ELISA based blocking assay is performed according to the following procedure. TGFβ1, TGFβ2, or TGFβ3 is coated at 200 ng per well on 96-well plates, and wells are then blocked with the blocking buffer. […] The absorbance at 405 nm is read for quantification of TGFβRII-binding to TGFβ1, TGFβ2, and TGFβ3. Optical density (OD) values are read on a microtiter plate reader (Molecular Devices Corp., Sunnyvale, Calif.).
(§2) The binding and blocking activity of purified anti-TGFβRII mAbs is determined in ELISA as described in “Generation of anti-TGFβRII mAbs” above. ED₅₀ and IC₅₀ of the antibodies are analyzed using GraphPad Prism® software 3.03 (GraphPad Software Inc., San Diego, Calif.).

[2] = molecular target: T1, soluble recombinant human TGFβRII …; test: blocking ELISA: TGFβRII-AP binding to coated human TGFβ2
Excerpt: as §1, §2

[3] = molecular target: T2, native human TGFβRII expressed on the cell surface (human, UniProt P37173 23-567); test: flow cytometry on 293-human TGFβRII transfectant cells; MFI against isotype control
T2 construct: also called human TGFβRII on 293-human TGFβRII transfectant cells, MDA-MB-231 and BXPC-3 cells
Procedure: (§3) Binding activity of anti-human TGFβRII mAb TGF1 and fluorescein isothiocyanate (FITC)-labeled goat anti-human IgG antibody may be determined by a staining assay with 293-human TGFβRII transfectant cells and human carcinoma cells. Specifically, aliquots of transfectant cells, carcinoma cells, spleen cells, or lymph node cells are harvested from subconfluent cultures and incubated with fluorescein-labeled or unlabeled primary antibodies to desired molecules in PBS with 1% BSA (staining buffer) for 1 hour on ice. A matched IgG isotype is used as a negative control. Cells are washed twice with the staining buffer and then incubated with FITC, Phycoerythrin (PE) or Alxas Red labeled species-specific secondary antibody to primary antibody (BioSource International, Camarillo, Calif.) in the buffer for 30 min on ice. Cells are washed as above and analyzed on a flow cytometer. […] The mean fluorescent intensity units (MFIU) are calculated as the mean log fluorescence multiplied by the percentage of positive population. The mean fluorescent intensity ratio (MFIR) is calculated to quantitate relative expression levels of TGFβRII in the cell lines. The MFIR is the mean fluorescence intensity (MFI) of cells stained with TGFβRII specific mAb divided by the MFI of cells stained with an isotype control antibody.

[4] = molecular target: T2, native human TGFβRII expressed on the …; test: cell-based or functional assay
[5] = molecular target: T1, soluble recombinant human TGFβRII …; test: blocking ELISA: TGFβRII-AP binding to coated human TGFβ1
Excerpt: as §1, §2

[6] = molecular target: T3, human TGFβRII-Fc (recombinant extracellular domain of human TGFβRII linked with human Fc or heavy chain … (human, UniProt P37173 23-166)); test: binding ELISA on coated human TGFβRII-Fc (given as ED50)
T3 construct: not shown: human Fc or heavy chain constant region
Excerpt: as §1, §2

[7] = molecular target: T3, human TGFβRII-Fc (recombinant …); test: SPR (Biacore), human TGFβRII ECD-Fc immobilised, room temperature
Procedure: (§4) Kinetic analyses of the mAbs are performed by immobilization of a fusion protein of recombinant extracellular domain of either mouse TGFβRII (SEQ ID NO: 51), or the extracellular domain of human TGFβRII (SEQ ID NO: 52) linked, respectively, with either mouse or human Fc or heavy chain constant region, onto a sensor surface at a concentration of from 5 to 100 nM.

[8] = molecular target: T2, native human TGFβRII expressed on the …; test: flow cytometry on MDA-MB-231 human breast carcinoma cells; MFI against isotype control
Procedure: as §3

[9] = molecular target: T3, human TGFβRII-Fc (recombinant …); test: SPR (BIAcore 2000), human TGFβRII ECD-Fc immobilised, room temperature
Procedure: as §4

[10] = molecular target: T4, mouse TGFβRII-Fc (recombinant extracellular domain of mouse TGFβRII linked with mouse Fc or heavy chain … (mouse)); test: ELISA
T4 construct: also called murine TGFβRII; not shown: mouse Fc or heavy chain constant region
T4 chain: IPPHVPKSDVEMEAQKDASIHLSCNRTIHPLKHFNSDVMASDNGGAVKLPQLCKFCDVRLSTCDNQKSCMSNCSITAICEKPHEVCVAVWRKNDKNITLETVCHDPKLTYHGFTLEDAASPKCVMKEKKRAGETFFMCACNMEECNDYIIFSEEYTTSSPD

T2 sequence (P37173 23-567): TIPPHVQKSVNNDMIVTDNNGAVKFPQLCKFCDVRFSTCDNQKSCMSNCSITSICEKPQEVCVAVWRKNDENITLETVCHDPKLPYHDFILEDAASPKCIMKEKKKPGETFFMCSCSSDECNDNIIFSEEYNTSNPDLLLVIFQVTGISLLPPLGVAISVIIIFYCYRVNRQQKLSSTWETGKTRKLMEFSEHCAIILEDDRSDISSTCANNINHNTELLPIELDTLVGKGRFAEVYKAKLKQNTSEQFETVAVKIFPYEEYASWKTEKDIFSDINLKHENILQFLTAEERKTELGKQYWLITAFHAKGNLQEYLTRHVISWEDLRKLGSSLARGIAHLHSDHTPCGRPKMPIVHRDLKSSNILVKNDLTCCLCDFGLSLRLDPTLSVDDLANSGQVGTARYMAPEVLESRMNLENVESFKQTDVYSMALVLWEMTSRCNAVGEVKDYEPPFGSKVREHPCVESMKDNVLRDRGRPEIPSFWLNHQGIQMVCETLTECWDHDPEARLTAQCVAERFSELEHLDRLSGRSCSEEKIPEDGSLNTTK
T1 sequence (P37173 23-166): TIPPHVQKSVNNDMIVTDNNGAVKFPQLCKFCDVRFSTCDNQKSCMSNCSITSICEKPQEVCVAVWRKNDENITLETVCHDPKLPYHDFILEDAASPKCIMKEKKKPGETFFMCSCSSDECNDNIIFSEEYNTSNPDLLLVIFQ
T3 sequence (P37173 23-166): as above

IC50 [1]: 0.19 nM | IC50 [2]: 0.54 nM | MFIR (mean fluorescent intensity ratio) [3]: 46 | IC50 in the p-Smad2 inhibition assay (TGFβ-induced phosphorylation of Smad2, MDA-MB-231 cells, Western blot) [4]: 5 nM | IC50 [5]: 0.12 nM | EC50 [6]: 0.059 nM | Kd [7]: 0.011 nM | MFIR (mean fluorescent intensity ratio) [8]: 209 | Kd [9]: 0.011 nM | koff [9]: 1.7e-05 s⁻¹ | kon [9]: 1.5e+06 M⁻¹ s⁻¹
B1: anti-human TGFβRII mAb TGF1 (antibody, human IgG1, kappa, V domains shown)
VH: QLQVQESGPGLVKPSETLSLTCTVSGGSISNSYFSWGWIRQPPGKGLEWIGSFYYGEKTYYNPSLKSRATISIDTSKSQFSLKLSSVTAADTAVYYCPRGPTMIRGVIDSWGQGTLVTVSS
VL: EIVLTQSPATLSLSPGERATLSCRASQSVRSYLAWYQQKPGQAPRLLIYDASNRATGIPARFSGSGSGTDFTLTISSLEPEDFAVYYCQQRSNWPPTFGQGTKVEIKG
notes: Human antibody from human-immunoglobulin transgenic mice, engineered as full-length human IgG1 with kappa light chain

IC50 [1]: 0.13 nM | IC50 [2]: 0.41 nM | IC50 in the p-Smad2 inhibition assay (TGFβ-induced phosphorylation of Smad2) [4]: < 25 nM | IC50 [5]: 0.1 nM | EC50 [6]: 0.031 nM | Kd [7]: 0.019 nM | Kd [9]: 0.019 nM | koff [9]: 2.7e-05 s⁻¹ | kon [9]: 1.4e+06 M⁻¹ s⁻¹ | binding result [10]: binds
B2: anti-human TGFβRII mAb TGF3 (antibody, human IgG1, kappa, V domains shown)
VH: QLQLQESGPGLVKPSETLSLTCTVSGGSISSSSYSWGWIRQPPGKGLEWIGSFYYSGITYYSPSLKSRIIISEDTSKNQFSLKLSSVTAADTAVYYCASGFTMIRGALDYWGQGTLVTVSS
VL: B1 VL with Y32F
notes: Human IgG1 with kappa light chain

IC50 [1]: 0.25 nM | IC50 [2]: 0.42 nM | IC50 in the p-Smad2 inhibition assay (TGFβ-induced phosphorylation of Smad2) [4]: < 25 nM | IC50 [5]: 0.19 nM | EC50 [6]: 0.048 nM | Kd [7]: 0.078 nM | Kd [9]: 0.078 nM | koff [9]: 3.4e-05 s⁻¹ | kon [9]: 430000 M⁻¹ s⁻¹ | binding result [10]: binds
B3: anti-human TGFβRII mAb TGF2 (antibody, V domains shown)
VH: QVQLVQSGAAVKKPGESLKISCKGSGYRFTSYWIGWVRQMPGKGLEWMGIIYPGDSDTRYSPSFQGQVTISAGKSISTAYLQWSSLKASDTAMYYCARHGRGYNGYEGAFDIWGQGTMVTVSS
VL: DIQMTQSPSSLSASVGDRVTITCRASQGISSWLAWYQQKPEKAPKSLIYAASSLQSGVPSRFSGSGSGTDFTLTISSLQPEDFATYYCQQYNSYPWTFGQGTKVEIKG
notes: as for B2
